Where two headings read alike, the source gives them in different places.
Substance: β-catenin: 1-mM LiCl (GSK3β inhibitor) added to TMA/BL-treated cultures
- localisation_or_trafficking (phosphorylation at S33): increases
- localisation_or_trafficking (phosphorylation at S37): increases
